{"source": "patent CN112159469A", "about": "(SHANGHAI PUBLIC HEALTH CLINICAL CT, dated 2021)"}
{"biological_target": "SARS-CoV-2病毒的S1蛋白的RBD (SARS-CoV-2, UniProt P0DTC2 319-541)", "assay": "BLI (OctetRED96), antibody captured on AHC probe, RBD in solution from 100 nM in 3-fold dilutions, 1:1 global fit", "units": {"Kd": "nM"}}
{"binder": "单抗4L12 (antibody, V domains shown) VH: EVQLVESGGGLVQPGGSLRLSCAASGITVSSNYMNWVRQAPGRGLEWVSLLYSGGSTYYADSVKGRFTISRDNSKNTLYLQMNSLRAEDTAVYYCARDLITYGMDVWGQGTTVTVSS VL: AIQLTQSPSSLSASVGDRVTITCRASQGISSYLAWYQQKPGKAPKLLIYAASTLQSGVPSRFSGSGSGTDFTLTISSLQPEDFATYYCQQLNSYPPLTFGGGTKVEIK", "Kd": 1.49}
{"binder": "单抗12F5 (antibody, V domains shown) VH: EVQLVESGGGLIQPGGSLRLSCAASGFTVSSNYMSWVRQAPGKGLEWVSVIYSGGSTFYADSVKGRFTISRDNSKNTLYLQMNSLRAEDTAVYYCARDLIDYGMDVWGQGTTVTVSS VL: DIQLTQSPSFLSASVGDRVTITCRASQGISSYLAWYQQKPGKAPKLLIYAASTLQSGVPSRFSGSGSGTEFTLTISSLQPEDFATYYCQQLNSYPPYTFGQGTKLEIK", "Kd": 2.22}
{"binder": "单抗3D13 (antibody, V domains shown) VH: EVQLVESGGGLIQPGGSLRLSCAASGLTVSSNYMSWVRQAPGKGLEWVSVIYSGGSAFYADSVKGRFTISRDNSKNTLYLQMNSLRAEDTAVYYCARDLSSAGGMDVWGQGTTVTVSS VL: not shown", "Kd": 4.17}
{"binder": "单抗10C2 (antibody, V domains shown) VH: EVQLVESGGGLIQPGGSLRLSCAASGLTVSSNYMNWVRQAPGKGLEWVSVIYSGGSTYYADSVKGRFTISRDNSKNTLYLQMNSLRAEDTAVYYCARLLVATIRDFDYWGQGTLVTVSS VL: not shown", "Kd": 3.36}
{"binder": "单抗16L9 (antibody, V domains shown) VH: EVQLVESGGGLIQPGGSLRLSCAASGFTVSSNYMSWVRQAPGKGLEWVSVIYSGGSTYYADSVKGRFTISRDNSENTLYLQMNSLRAEDTAVYYCARGEIQPYYYYGMDVWGQGTTVTVSS VL: QSVLTQPPSASGSPGQSVTISCTGTSSDFGGYNSVSWYQQHPGKAPKLMIYEVSKRPSGVPDRFSGSKSGNTASLTVSGLQAEDEADYYCSSYAGSNNFDVFGTGTKVTVL", "Kd": 1.21}
{"binder": "单抗20E21 (antibody, V domains shown) VH: EVQLVESGGGLFQPGGSLRLSCAASGLTVSSNYMSWVRQAPGKGLECVSVIYSGGSTYYADSVKGRFTISRDNSKNTLYLQMNSLRAEDTAVYYCARDRGMLHGMDVWGQGTTVTVSS VL: not shown", "Kd": 2.3}
{"binder": "单抗22H22 (antibody, V domains shown) VH: EVQLVESGGALIQPGGSLRLSCAASGLTVSSNYMTWVRQAPGKGLEWVSVIYSGGSTYYADSVKGRFTISRDNSKNTLYLQMNSLRAEDTAVYYCARGYGDYENYFDYWGQGTLVTVSS VL: AIQLTQSPSSLSASVGDRVTITCRASQGISSYLAWYQQKPGKAPKLLIYAASTLQGGVPSRFSGSGSGTDFTLTISSLQPEDFATYYCQHLWTFGQGTKVEIK", "Kd": 5.07}
